Laboratory results: publication PMC7951975

Biological target: GraS (native), fused to the T18 fragment of adenylate cyclase (Staphylococcus aureus) (UniProt Q2G0D9)
Chain of UniProt Q2G0D9 (Q2G0D9 whole entry, the tested form may be a part): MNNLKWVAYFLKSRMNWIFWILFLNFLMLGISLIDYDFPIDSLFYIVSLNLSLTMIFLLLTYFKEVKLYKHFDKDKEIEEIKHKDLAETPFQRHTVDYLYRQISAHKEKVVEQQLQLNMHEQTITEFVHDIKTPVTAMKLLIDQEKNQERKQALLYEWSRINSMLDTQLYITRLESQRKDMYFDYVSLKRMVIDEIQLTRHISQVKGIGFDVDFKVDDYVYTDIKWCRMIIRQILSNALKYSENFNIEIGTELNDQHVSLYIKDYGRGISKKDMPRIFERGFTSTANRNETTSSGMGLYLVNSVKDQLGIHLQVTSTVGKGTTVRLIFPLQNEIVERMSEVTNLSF

EL peptide of VraG (wild type) (domain or fragment)
survival of the ΔEL vraG mutant of JE2 in a 2-hr. killing assay with 2.5 μg/ml LL-37 in the presence of ~300 ng exogenous EL peptide: 40%
